From article PMC11892739, “Site-specific molecular glues for the 14-3-3/Tau pS214 protein–protein interaction via reversible covalent imine tethering” (RSC Medicinal Chemistry, 2025)
Square brackets hold non-standard residues; d marks the D form. Ends that are not written are not given here. pS = N[C@@H](COP(=O)(O)O)C(=O)O

Tests used:
14-3-3ζ/Tau pS2 peptide = molecular target: T1, 14-3-3ζ/Tau pS2 peptide (Homo sapiens, UniProt P63104); assay: Differential scanning fluorimetry of 14-3-3 with Tau pS2 peptide and compounds; type: binding; settings: 10-fold excess of Tau pS2 peptide relative to 14-3-3ζ
T1 construct: made in house; host or cells: NiCo21 (DE3) E. coli
T1 sequence (P63104 1-245): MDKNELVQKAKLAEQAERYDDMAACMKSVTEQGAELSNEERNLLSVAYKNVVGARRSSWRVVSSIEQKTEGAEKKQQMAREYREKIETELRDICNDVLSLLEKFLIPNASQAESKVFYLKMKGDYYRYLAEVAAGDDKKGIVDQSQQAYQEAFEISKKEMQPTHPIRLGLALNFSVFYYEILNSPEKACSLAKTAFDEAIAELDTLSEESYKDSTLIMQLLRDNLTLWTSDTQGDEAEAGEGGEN
Protocol: Fig. 3 a Dose–response fluorescence anisotropy data of compound titrations to 10 nM FITC-labeled Tau pS2 peptide and 100 nM 14-3-3ζ. […] Mean of three individually performed experiments (see ESI ^† Fig. S8 for the protein titrations). e Differential scanning fluorimetry assay results. Identified melting temperatures (Tm) of 14-3-3γ alone (2.5 μM) and in the presence of Tau pS2 peptide (25 μM) and additionally with selected compounds (75 μM).
As an orthogonal method to profile the PPI stabilizing activity of selected compounds, differential scanning fluorimetry (DSF) assays were performed (Fig. 3e). […] Upon addition of compounds (1, 11, 13–14, and 20–22) to this PPI complex (30-fold compared to 14-3-3ζ), an additional increase in melting temperature between 0.9 °C and 2.1 °C was observed relative to the binary 14-3-3ζ/Tau pS2 peptide system. These observations are in agreement with the stabilization observed in the FA data and strongly testify to the molecular glue effect of our compound, by enhancing the stability of the PPI complex. […]
chromatography (HisTrap high performance cartridges, Cytiva). Typically two 5 mL columns were used for a 2 L culture in which the lysate was loaded on the column, washed with 10 CV wash buffer (50 mM Hepes, pH 8.0, 300 mM NaCl, 25 mM imidazole, 2 mM βME), and eluted with several fractions (2-4 CV) of elution buffer (50 mM Hepes, pH 8.0, 300 mM NaCl, 250 mM imidazole, 2 mM βME). Fractions containing the 14-3-3 protein were combined and dialyzed into 25 mM HEPES pH 8.0, 200 mM NaCl, 10 mM MgCl2, 2 mM βME, followed by dialysis into 25 mM HEPES, 100 mM NaCl, 10 mM MgCl2, 500 μM TCEP (adjusted to pH 8.0). Dialyzed protein was concentrated to ∼40 mg/mL, analyzed by Q -Tof LC/MS, and aliquots were flash -frozen for storage at −80 °C. For 14 -3-3σ∆c, 1 mg TEV per 100 mg purified protein was added to the dialysis to remove the purification tag. The cleaved sample was then again loaded on a 10 mL Ni-NTA column to separate the cleaved product from the expression tag and residual uncleaved protein. The flowthrough was loade d on a Superdex 75 pg 16/60 size exclusion column (GE Life Sciences) using 25 mM HEPES, 100 mM NaCl, 10 mM MgCl2, 500 μM TCEP (adjusted to pH = 8.0) as running buffer. Fractions containing the 14 -3-3 protein were pooled and concentrated to ∼60 mg/mL, analyzed Q -Tof LC/MS, and aliquots were flash -frozen for storage at −80°C. […]
The peptide screen was performed in a similar way as the 14-3-3ζ titration in the precence of compound.
14-3-3ζ was titrated in a 2-fold dilution series (starting at 400 µM 14-3-3ζ) to 100 nM of fluorescein-labeled peptides and 250 µM compound 18 (1% DMSO) in FA buffer (10 mM HEPES pH 7.4, 150 mM […]
Data shown is the average of a scientific triplicate.
Differential Scanning Fluorimetry (DSF)
DSF was performed using 40 µl samples containing 2.5 µM 14 -3-3ζ, 25 µM Tau peptide (Tau pS2, Tau pS214 or Tau pS324), […] (1% DMSO) and 5x ProteoOrange (Lumiprobe, 5000x stock in DMSO) in 10 mM HEPES, 150 mM NaCl, 50 µM TCEP (pH 7.4). The samples were heated from 35 °C to 79°C at a rate of 0.3 °C per 15 s in a C FX96 Touch Real-Time PCR Detection System (Bio -Rad). Fluorescence intensity was determined using excitation ( λem=525/20 nm) and emission ( λex=570/20 nm) filters.
Based on these melting curves, the negative derivative melting curve is obtained from which the melting temperature Tm was determined. All described melting temperatures are based on two or three independent experiments, from which the average and standard deviations were determined.
X-ray crystallography data collection and refinement
For x-ray crystallography, a C-terminally truncated 14-3-3σ protein (truncated after T231 to reduce flexibility) was used. This 14-3-3σ∆C was preincubated with Tau pS214 in complexation buffer (20 mM HEPES pH 7.5, 2 mM MgCl2 and 100 μM TCEP) in a 1:1.5 molar stoichiometry (protein:peptide) at a final protein concentration of 10.0 mg/mL. […]

14-3-3ζ = molecular target: 14-3-3ζ; design: method as in doi:10.1101/2024.03.15.585148; settings: FA assay, binary complex; read-out: KD of bivalent Tau pS2 peptide to 14-3-3ζ; cited from earlier work

ΔTm, increase of 14-3-3 melting temperature compared to apo-14-3-3ζ (14-3-3ζ/Tau pS2 peptide): ~0.6 °C
Substance: Tau pS2 peptide: bivalent Tau peptide phosphorylated at S214 + S324: SRTP{pS}LPTPPTREGGGSGGGSGGGVTSKCG{pS}LGNIHHK (chain 1 SRTP[pS]LPTPPTREGGGSGGGSGGGVTSKCG[pS]; numbers in words are those of the source; also: chains 1 and 2 are one continuous peptide joined through pS324) [reference compound]
Kd (14-3-3ζ): 945 ± 70 nM
